Measurements taken from patent publication US20220195015A1 (published 2022).

Molecular target: SARS-CoV-2 spike receptor binding domain (RBD), wild type (SARS-CoV-2, UniProt P0DTC2 319-539)
Assay: ELISA, RBD protein coated, mAb titrated

Binder	EC50
C563 (antibody, V domains shown) VH: EVQLVESGGGLVKPGGSLRLSCAASGFPFTNAWMSWVRQAPGKGLEWVGHIKDYTDGGTTDYAAPVKGKFTISRDDSKNTLYLHMNSLKTEDTAVYYCSTVGSYYYDSRGPTSDAFDIWGQGTLVTVSS VL: not shown	1.19 ng/mL
C550 (antibody, V domains shown) VH: EVQLVQSGAEVKKPGESLKISCKGSGYRFTNYWIGWVRQMPGKGLEWMGIIYPGDSDTRYSPSFQGQVTISADKSITTAYLQWSSLKASDTAMYYCARLSDRWYSPFDPWGQGTLVTVSS VL: not shown	2.56 ng/mL
C532 (antibody, V domains shown) VH: EVQLVQSGAEVKKPGESLKISCKGSGYRFTNYWIGWVRQMPGKGLEWIGNIFPGDSDSRYSPSFQGQVTISVDMSITTAYLHWSSLKASDTAIYYCARLSERWYSPFDSWGQGTLVTVSS VL: EIVMTQSPATLSVSPGERATLSCRASQSVSSNLAWYQQKPGQAPRLLIYGASTRATGFPARFSGSGSGTEFTLTISSLQSEDFAVYFCQQYNNWPPGGFTFGPGTKVDIK	1 ng/mL
C538 (antibody, V domains shown) VH: QLQLQESGPGLVKPSETLSLTCTVSGGSISSSSYYWAWIRQPPGKGLEWIGNIYYSGITYYSPSLKSRVTISVDTSKNQFSLKLRSVTAADTAVYYCARQHRYGSGSSELLWGQGTLVTVSS VL: QSALTQPPSASGSPGQSVTISCTGTSSDVGSYNYVSWYQQHPGKAPKLMIYEVTKRPSGVPDRFSGSKSGNTASLTVSGLQADDEADYYCSSYAGSSNLIFGGGTKLTVL	3.94 ng/mL
C523 (antibody, V domains shown) VH: QVQLQESGPGLVKPSETLSLTCTVSGASISSHYWSWIRQPPGKGLEWIGYIHYIGSTNYNPSLKSRVTILLDTSKNQFSLRLRSVTAADTAVYYCARGWPYCGVDCYSGFDYWGQGTLVTVSS VL: not shown	9.08 ng/mL
C533 (antibody, V domains shown) VH: EVQLVESGGSLVKPGGSLRLSCVASGLTFNHAWMSWVRQAPGKGLEWVGRIKSKIDGGTTDYAAPVKGRFTISRDDSKSTQYLQMNSLKTEDTAVYYCTTDCFWRLGGTTCYEHDAFDVWGQGTMVTVSS VL: DIQMTQSPSSLSASVGDRVTITCRASQAIATFLNWYQQKPGKAPKLLIYAASSLQSGVPSRFSGSGSGTDFTLTISNLQPEDFATYYCQQSYNSLHFGGGTKVEIK	1.61 ng/mL
C560 (antibody, V domains shown) VH: EVQLVESGGGLVQPGRSLRLSCAASGFTFDDYAMHWVRQAPGKGLEWVSGVSWNSGTIGYADSVKGRFTISRDNAKNSLYLQMNSLRAEDTALYYCAKIADIVRAYDFWSGQHFDAFDIWGQGTMVTVSS VL: not shown	1.6 ng/mL
C561 (antibody, V domains shown) VH: EVQLVESGGGLVQPGRSLRLSCAASGFTFDDYAIHWVRQAPGKGLEWVSGVSWNSGTIGYADSVKGRFFISRDNAKNSLYLQMNSLRAEDTAWYYCAKIADLVGAYDFRSGQHFAAFDVWGQGTMVTVSS VL: not shown	1.53 ng/mL
C524 (antibody, V domains shown) VH: EVQLVESGGDLIQPGGSLRLSCAASGFSVSNSYMSWVRQAPGKGLEWVSIIYSGGSTYYADSVKGRFTISRDNSKNTLYLQMNSLRAEDTAVYFCAKTPRGDYDSSGTSAYWGQGTLVTVSS VL: QLVLTQSPSASASLGASVNLTCTLSSGHSSYAIAWHQQQPEKGPRFLMKLSSDGSHNKGDGIPDRFSGSSSGAERFLTISSLQSEDEADYYCQTWGIGSDWVFGGGTKLTVL	5 ng/mL
C536 (antibody, V domains shown) VH: QVQLVESGGGLVKPGRSLRLSCTVSGFTFGAYAMSWFRQAPGKGLEWVGFIRSKTYGGTTEYAASLKGRFTISRDDSKSIAFLQMNSLKTEDTAVYFCSRGGYYDGSPYYWNRPDAFDIWGLGTMVTVS VL: not shown	1.88 ng/mL
C534 (antibody, V domains shown) VH: QVQLVQSGAEVKKPGSSVRVSCKASGGTFSRNVISWVRQAPGQGLEWMGGIIPMFATANYAQKFQGRVTITADESSSTAYMELSSLRSEDTAVYYCAREDFILVSAPIRENSYYYYGMDVWGQGTTVTVSS VL: EIVLTQSPGTLSLSPGERATLSCRASQSVSSNYLAWYQQKPGQAPRLLIYDASSRATGIPDRFSGSGSGTDFTLTISRLEPEDFAVYYCQQYGGSPRTFGQGTKVEIK	4.85 ng/mL
C556 (antibody, V domains shown) VH: QVQLVQSGAEVKKPGASVKVSCKASGYTFTYYYMHWVRQAPGQGLEWMGIINPSGGSTSYAQKFQGRVTMTRDTSTSTVYMELSSLRSEDTAVYYCARPLLPGETGSLNRLDYWGQGTLVTVSS VL: not shown	1.36 ng/mL
C535 (antibody, V domains shown) VH: EVQLVESGGALVQPGRSLRLSCAASGFTFDDYAMHWVRQAPGKGLEWVSSISWNGVSIGYADSVRGRFTISRDNAKNSLYLQMNSLKIGDTAFYYCARGLDGSSSASPDSWGQGTLVTVSS VL: DIQMTQSPSSVSASVGDRVTITCRASQGIGSWLAWYQQKPGKAPKLLIYLASSLQSGVPSRFSGSGSGTYFTLTISGLQPEDFATYYCQQGNSFPLTFGGGTKVEIK	2.46 ng/mL
C546 (antibody, V domains shown) VH: EVQLLESGGGLVHPGGSLRLSCAASGFTFSTYAMHWVRQAPGKGLEWVSAISGSGTGTFYADSVKGRFSISRDNSKNTLYLQMNSLRAEDTAVYYCATERIAVSDTRMYNWFDPWGQGTLVTVSS VL: DIQMTQSPSSLSASVGDRVTLTCRASQGISTYLNWYQQKPGKAPNLLIYAASSLQSGVPSRFSGSGSGTDFTLTISSLQPEDFATYYCQQSYSAPPWTFGQGTKVEIK	3.57 ng/mL
C555 (antibody, V domains shown) VH: EVQLVESGGGLVKPGGSLRLSCAASGLTFSTTWMSWVRQAPGKGLEWVGRIKSKGDGGTTDFAGPVKGRFSISRDDSKNTLYLHMNSLKTEDTAVYYCTTDDPGSYYYGMDVWGQGTTVTVSS VL: QTVVTQEPSLTVSPGGTVTLTCASSTGAVTSGHYPYWFQQKPGQAPRTLIYATSNKHSWTPARFSGSLLGGKAALTLSGAQPEDEADYYCLLSYSGARVFGGGTKLTVL	2.88 ng/mL
C537 (antibody, V domains shown) VH: QLQLQESGPGLVKPSETLSLTCTVSGGAISSRNYHWGWIRQPPGKGLEWIGSIYYSGSTYYSPSLKSRVTISVDTSKNQFSLRLSSVTAADTAVYYCARLETSGWYTEDVFDIWGQGTMVTVSS VL: DIQMTQSPSSLSASVGDRVTITCRASQSISSYLNWYQQKPGKAPKLLIYAASSLQSGVPSRFSGSGSGTDFTLTISSLLPEDFATYYCQRSYSAMYTFGQGTKLEIK	41.9 ng/mL

Molecular target: SARS-CoV-2 spike receptor binding domain (RBD), wild type (SARS-CoV-2, UniProt P0DTC2 319-539)
Assay: ELISA, RBD protein coated, mAb titrated
Remark: another data set of the same source

Binder	EC50
C530 (antibody, V domains shown) VH: QVQLVESGGGVAQPGRSLRLSCAASGFTFSRYGMHWVRQAPGKGLEWVAVIWHDGSDKYCADFVKGRFTISRDNSKNTLYMQMDSLRAEDTAVYYCARGGRPDHETGIAVLGEYYFDSWGQGTLVTVSS VL: SYELTQPPSVSVSPGQTARITCSGDAFPLQYGYWYQQKPGQAPVLVIYKDKERPSGISERFSGSSSGTTVTLTISGVQAEDEADYYCQSADTNGVVFGGGTSLTVL	10.5 ng/mL
C526 (antibody, V domains shown) VH: QVQLVQSGAEVKKPGASVKVSCKASGHTFTTYYLHWVRQAPGQGLEWMGRIDPSGGSTTYAQKFQGRVTMTRDTSTSTVYMELSSLRSEDTALYYCARGGYCGSTSCSPDDYFDYWGQGTLVTVSS VL: SYELTQPPSVSVAPGKTARITCGGNNIGSKSVHWYQQKPGQAPVLVIYYDSDRPSGIPERFSGSNSGNTATLTISRVEAGDEADYYCQVWDSSSDHYYVFGTGTKVTVL	18.2 ng/mL
C527 (antibody, V domains shown) VH: QVQLVESGGGVVQPGRSLRLSCAASGFTFSSYGMHWVRQAPGKGLEWVALIGYDGTDKYYAENVKGRFTISRDNSKNTLFLQMNSLRGGDTAVYLCARDGIPFRYGMDVWGQGTTVTVSS VL: DIQMTQSPSTLSASVGDRVTITCRASQSIDIWLAWYQQKPGKAPKFLIHKASTLESGVPSRFSGSGSGTEFTLTISSLQPDDFATYYCQHYHSYSGTFGQGTKVEIK	13.4 ng/mL
C531 (antibody, V domains shown) VH: EVQLVESGGGLVQPGRSLRLSCVATGFTFDDFAMHWVRQAPGKGLEWVSGISWNGGIIGYVDSVKGRFTISRDNAKNSLYLQMNSLRPEDTALYYCVKGYRYYYDILTGYYNDAGAFDYWGQGTLVTVSS VL: DIQSTQSPSFLSASVGDRVAITCRASQGISSYLAWYQQKPGKAPKLLIYPASTLQSGVPSGFSGSGSGTEFTLTISSLQPEDFATYYCQQLNDYPFTFGPGTKVDIK	6.84 ng/mL
C529 (antibody, V domains shown) VH: EVQLLESGGGLVQPGGSLRLSCAASGFTFNNYAMNWVRQAPGRGLEWVSGISGSGANTYYADSVKGRFTISRDNPKNTLSLQMNSLRAEDTALYYCAKVLSPTYYDSWSGPDAFDFWGQGTMVTVSS VL: DIQMTQSPSTLSASVGDRVTITCRASQTISPWLAWYQQKPGKAPNLLIYKASSLESGVPSRFSGSGSGTEFTLTISSLQPDDFATYYCQQYNSYSSWTFGQGTKVEIK	8 ng/mL
C571 (antibody, V domains shown) VH: EVQLVESGGGLIQPGGSLKLSCVVSGFTVSRNYISWVRQAPGKGLEWVSVLFAGGSTFYADSVKGRFAISRDNSNNTLFLQMNSLRVEDTAIYYCARGDGELIFDQWGQGTLVTVSS VL: QSVLTQPPSVSGAPGQRVTIVCTGTSSNIGAGYDVHWYQQLPGRAPKVLVSGNNIRPSEVPDRFSGSRSGTSASLAITSLQPEDEAQYYCQSYDSNLYAVFGGGTKLTVL	4.62 ng/mL
C525 (antibody, V domains shown) VH: EVQLVESGGRLVQPGRSLRLSCAASGFTFDDYAIHWVRQAPGKGLEWVSGISWNSGSIGYADSVRGRFTISRDNAKNSLYLQMNSLRAEDTALYYCAKGLDSSSSASPDYWGQGTLVTVSS VL: DIQMTQSPSSVSASVGDRVTITCRASQDISSWLAWYQQKPGKAPKLLIYLASSLQSGVPSRFSGSGSGTDFILTISSLQPEDFGTYYCQQGNSFPLTFGGGTKVEIK	10.6 ng/mL
C528 (antibody, V domains shown) VH: EVQLVESGGGLVQPGGSLRLSCAASGFTFRNYDMHWVRQVAGKGLEWVSAIGTSGDTYYPDSVKGRFTISRENAKNSVYLQMNNLRAGDTAVYFCVRDREISGWTGWYFDLWGRGTLVTVSS VL: DIQMTQSPSSLSASVGDRVTITCRASQTIHNYLNWYQQIPGKAPRLLIYATNTLQSGVPSRFSGSGSGTDFTLTITGLQPEDFATYYCQQSYSTPPITFGQGTRLEIK	5.66 ng/mL
